Data on ten compounds can be found in patent US20020183249A1, “Method of identifying inhibitors of CDC25” (priority 1999, published 2002).

The target of one assay is Cdc25A (human). The experiment in a line: cell-based or functional assay.
The next assay concerns the target T1, Cdc25A (Homo sapiens, UniProt P30304).
T1 sequence (P30304 1-524): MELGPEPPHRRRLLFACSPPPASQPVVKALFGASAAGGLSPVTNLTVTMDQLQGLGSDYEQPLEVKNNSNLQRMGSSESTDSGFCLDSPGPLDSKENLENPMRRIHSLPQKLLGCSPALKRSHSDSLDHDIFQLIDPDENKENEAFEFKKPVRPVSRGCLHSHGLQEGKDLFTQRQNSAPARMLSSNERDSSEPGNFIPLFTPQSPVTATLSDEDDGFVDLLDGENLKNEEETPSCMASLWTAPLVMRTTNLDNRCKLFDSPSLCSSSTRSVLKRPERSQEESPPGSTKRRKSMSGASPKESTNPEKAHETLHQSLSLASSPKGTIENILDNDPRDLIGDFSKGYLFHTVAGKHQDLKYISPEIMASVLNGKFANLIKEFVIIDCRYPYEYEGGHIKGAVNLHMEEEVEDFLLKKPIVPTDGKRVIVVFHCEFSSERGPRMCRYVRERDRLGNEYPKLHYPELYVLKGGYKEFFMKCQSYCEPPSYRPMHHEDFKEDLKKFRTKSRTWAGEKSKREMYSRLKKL
The experiment in a line: Inhibition of Cdc25A enzymatic activity (IC50). Format: biochemical. The source says:
A compound which is identified by one of the foregoing methods as a potential inhibitor of Cdc25 can then be obtained, for example, by synthesis or from a compound library, and assessed for the ability to inhibit Cdc25 in vitro. Such an in vitro assay can be performed as is known in the art, for example, by contacting Cdc25 in solution with the test compound in the presence of a substrate for Cdc25. The rate of substrate transformation can be determined in the presence of the test compound and compared with the rate in the absence of the test compound. Suitable assays for Cdc25 biological activity are described in U.S. Pat. Nos. 5,861,249; 5,695,950; 5,443,962; and 5,294,538, the teachings of each of which are hereby incorporated by reference herein in their entirety.

Read-outs that look alike come from different tables or passages of the source. Non-standard residues stand in square brackets, D forms with d. Residues, ends and D or L forms follow the SMILES beside them. *: point of attachment. Phe(4-CH2SO3H) = N[C@@H](Cc1ccc(CS(=O)(=O)O)cc1)C(=O)O; Bta = N[C@@H](Cc1csc2ccccc12)C(=O)O; Aad = N[C@@H](CCCC(=O)O)C(=O)O; X1 = CCOc1ccc2ccccc2c1C(=O)*; X2 = COc1ccc2ccccc2c1C(=O)*; αMeP = C[C@@]1(C(=O)O)CCCN1; Nle = CCCC[C@H](N)C(=O)O; Nva = CCC[C@H](N)C(=O)O; NHtBu = CC(C)(C)N*; OtBu = CC(C)(C)O*

In turn, “2-EtO-naphthyl-1-CO-Smp-Glu(tBu)-Pro-Bta-Aad-NHtBu (peptide)” came in with an IC50 in the assay with Cdc25A (human) of 1100 nM.
The compound “2-CH3O-1-naphthyl-CO-Smp-Glu-Glu-Bta-Aad-NHtBu (peptide)” yielded an IC50 with Cdc25A (human) of 5000 nM.
On Cdc25A, `CCC[C@H](NC(=O)[C@H](Cc1ccc(CS(=O)(=O)O)cc1)NC(=O)c1c(OCC)ccc2ccccc12)C(=O)N1CCC[C@@]1(C)C(=O)N[C@@H](Cc1csc2ccccc12)C(=O)N[C@@H](CCCC(=O)O)C(=O)NC(C)(C)C` [cdc1749] (X1-[Phe(4-CH2SO3H)][Nva][αMeP][Bta][Aad]-NHtBu) registered an IC50 of 1500 nM.
In the assay with Cdc25A (human), “2-EtO-naphthyl-1-CO-Smp-Nva-MePro-Bta-Aad-NHtBu (peptide)” returned an IC50 of 1500 nM.
At Cdc25A, `CCOc1ccc2ccccc2c1C(=O)N[C@@H](Cc1ccc(CS(=O)(=O)O)cc1)C(=O)N[C@@H](CCC(=O)OC(C)(C)C)C(=O)N1CCC[C@H]1C(=O)N[C@@H](Cc1csc2ccccc12)C(=O)N[C@@H](CCCC(=O)O)C(=O)NC(C)(C)C` [cdc1719] (X1-[Phe(4-CH2SO3H)]E(OtBu)P[Bta][Aad]-NHtBu) had an IC50 of 1100 nM.
Still for that read-out and setting: for `CCCC[C@H](NC(=O)[C@H](Cc1ccc(CS(=O)(=O)O)cc1)NC(=O)c1c(OCC)ccc2ccccc12)C(=O)N1CCC[C@H]1C(=O)N[C@@H](Cc1csc2ccccc12)C(=O)N[C@@H](CCCC(=O)O)C(=O)NC(C)(C)C` [cdc1748] (X1-[Phe(4-CH2SO3H)][Nle]P[Bta][Aad]-NHtBu) the value was 2500 nM.
In the assay with Cdc25A (human), “2-EtO-naphthyl-1-CO-Smp-Glu-Pro-Bta-Aad-NHtBu (peptide)” yielded an IC50 of 2200 nM and an increase in potency compared to cdc1671 of 2 fold.
`CCOc1ccc2ccccc2c1C(=O)N[C@@H](Cc1ccc(CS(=O)(=O)O)cc1)C(=O)N[C@@H](CCC(=O)O)C(=O)N1CCC[C@H]1C(=O)N[C@@H](Cc1csc2ccccc12)C(=O)N[C@@H](CCCC(=O)O)C(=O)NC(C)(C)C` [cdc1763] (X1-[Phe(4-CH2SO3H)]EP[Bta][Aad]-NHtBu) gave an IC50 against Cdc25A of 2200 nM. Also, the “increase in potency compared to cdc1671” value at Cdc25A (Cdc25A IC50 relative to cdc1671) is on record as “two-fold”.
“2-EtO-naphthyl-1-CO-Smp-Nle-Pro-Bta-Aad-NHtBu (peptide)” had a half-inhibitory concentration (IC50) with Cdc25A (human) of 2500 nM.
Take `COc1ccc2ccccc2c1C(=O)N[C@@H](Cc1ccc(CS(=O)(=O)O)cc1)C(=O)N[C@@H](CCC(=O)O)C(=O)N[C@@H](CCC(=O)O)C(=O)N[C@@H](Cc1csc2ccccc12)C(=O)N[C@@H](CCCC(=O)O)C(=O)NC(C)(C)C` [cdc1671, 2-CH3O-1-naphthyl-CO—Smp—Glu—Glu—Bta—Aad—NHtBu] (X2-[Phe(4-CH2SO3H)]EE[Bta][Aad]-NHtBu): the IC50 at Cdc25A (inhibits Cdc25A, read-out: IC50) was 5000 nM.

By IC50 is commonly meant the concentration that inhibits the measured activity by half.
